Laboratory results: publication PMC2440032 (2008)

Target: porcine stomach mucin (porcine)
Experiment: SPR

For YASPKCFRYPNGVLACT [odorranalectin], the Kd was 1.91 µM.
